Measured values reported in patent US20210324076A1 (AMPHIVENA THERAPEUTICS, published 2021).
Residue numbers refer to the chain shown, from its start.

Experiments:
human CD3 = human CD3 (human, UniProt P07766 23-207; P09693 23-182; P04234 22-171; P20963 22-164); experiment: cell-based or functional assay
human CD33 = human CD33 (human, UniProt P20138 18-364); experiment: cell-based or functional assay
Sequence of human CD33 (P20138 18-364): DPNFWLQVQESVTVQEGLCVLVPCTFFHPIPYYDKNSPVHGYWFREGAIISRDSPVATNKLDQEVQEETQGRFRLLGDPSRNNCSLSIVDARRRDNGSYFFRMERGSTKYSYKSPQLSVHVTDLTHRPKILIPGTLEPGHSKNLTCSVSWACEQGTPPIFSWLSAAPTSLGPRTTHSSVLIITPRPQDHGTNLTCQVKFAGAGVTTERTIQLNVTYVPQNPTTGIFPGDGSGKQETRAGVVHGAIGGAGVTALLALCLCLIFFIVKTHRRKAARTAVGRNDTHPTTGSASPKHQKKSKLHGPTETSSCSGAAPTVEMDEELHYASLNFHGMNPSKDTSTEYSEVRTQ

Sequence of human CD3 (P07766 23-207, chain 1 of 4): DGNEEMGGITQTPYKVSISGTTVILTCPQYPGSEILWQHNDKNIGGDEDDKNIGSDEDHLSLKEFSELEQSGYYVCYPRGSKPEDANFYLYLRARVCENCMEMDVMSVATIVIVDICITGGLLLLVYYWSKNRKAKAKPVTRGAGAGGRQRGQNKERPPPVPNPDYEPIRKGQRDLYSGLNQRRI
Sequence of human CD3 (P09693 23-182, chain 2 of 4): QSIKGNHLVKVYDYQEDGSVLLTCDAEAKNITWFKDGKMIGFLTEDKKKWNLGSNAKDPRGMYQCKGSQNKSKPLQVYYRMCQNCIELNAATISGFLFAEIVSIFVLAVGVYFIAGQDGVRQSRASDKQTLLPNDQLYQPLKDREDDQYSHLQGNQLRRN
Sequence of human CD3 (P04234 22-171, chain 3 of 4): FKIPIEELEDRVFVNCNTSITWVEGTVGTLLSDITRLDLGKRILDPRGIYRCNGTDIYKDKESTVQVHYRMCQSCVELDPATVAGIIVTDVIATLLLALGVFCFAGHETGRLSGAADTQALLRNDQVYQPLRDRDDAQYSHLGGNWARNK
Sequence of human CD3 (P20963 22-164, chain 4 of 4): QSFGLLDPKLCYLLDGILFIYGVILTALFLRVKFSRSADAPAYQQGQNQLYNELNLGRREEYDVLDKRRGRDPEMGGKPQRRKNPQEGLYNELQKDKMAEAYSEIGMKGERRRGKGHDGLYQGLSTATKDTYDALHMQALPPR

B1: CD33/CD3 2×2 T-cell engager 19 (bispecific antibody)
chain: DIQMTQSPSSLSASVGDRVTITCRSSTGAVTTSNYANWVQQKPGKAPKALIGGTNKRAPGVPSRFSGSLIGDKATLTISSLQPEDFATYYCALWYSNLWVFGQGTKVEIKGGSGGSQVQLVQSGAEVKKPGASVKVSCKASGYTFTSYYMHWVRQAPGQGLEWMGIINPSGGSTSYAQKFQGRVTMTRDTSTSTVYMELSSLRSEDTAVYYCARDVVPAAIDYYGMDVWGQGTTVTVSSGGSGQSVLTQPPSASGTPGQRVTISCSGSSSNIGSNTVNWYQQLPGTAPKLLIYSDNQRPSGVPDRFSGSKSGSSASLAISGLQSDDEADYYCATWDDSLNGAVFGGGTKLTVLGGSGGSEVQLVESGGGLVQPGGSLRLSCAASGFTFSTYAMNWVRQAPGKGLEWVGRIRSKYNNYATYYADSVKDRFTISRDDSKNSLYLQMNSLKTEDTAVYYCARHGNFGNSYVSYFAYWGQGTLVTVSSAAAGSHHHHHH
Human CD3
  CD25 Induction EC50 (PBMC, 24 h): 0.009 nM
  CD69 Induction EC50 (PBMC, 24 h): 0.005 nM
Human CD33
  IC50 lysis of KG-1 cells with human T cells, E:T 5:1, 24 h: ~0.005 nM

B2: CD33/CD3 2×2 T-cell engager 20 (bispecific antibody)
chain: B1 chain with A49G, D72T, K73D, A74F, Y470W
Human CD3
  CD25 Induction EC50 (PBMC, 24 h): 0.098 nM
  CD69 Induction EC50 (PBMC, 24 h): 0.075 nM

B3: CD33/CD3 2×2 T-cell engager 10 (bispecific antibody)
chain: DIQMTQSPSSLSASVGDRVTITCRSSTGAVTTSNYANWVQQKPGKAPKGLIGGTNKRAPGVPSRFSGSLIGDKATLTISSLQPEDFATYYCALWYSNLWVFGQGTKVEIKGGSGGSQVQLVQSGAEVKKPGASVKVSCKASGYTFTSYDINWVRQAPGQGLEWMGWMNPNSGNTGFAQKFQGRVTMTRDTSTSTVYMELSSLRSEDTAVYYCARDRANTDYSFGMDVWGQGTLVTVSSGGSGQSVLTQPPSASGTPGQRVTISCSGSRSNIGSNTVNWYQQLPGTAPKLLIYGNNQRPSGVPDRFSGSKSGTSASLAISGLQSEDEADYYCATWDDSLIGWVFGGGTKLTVLGGSGGSEVQLVESGGGLVQPGGSLRLSCAASGFTFSTYAMNWVRQAPGKGLEWVGRIRSKYNNYATYYADSVKDRFTISRDDSKNSLYLQMNSLKTEDTAVYYCARHGNFGNSYVSWFAYWGQGTLVTVSSAAAGSHHHHHH
Human CD3
  CD25 Induction EC50 (PBMC, 24 h): 0.01 nM
  CD69 Induction EC50 (PBMC, 24 h): 0.006 nM

B4: CD33/CD3 2×2 T-cell engager 09 (bispecific antibody)
chain: B3 chain with Y221F, F223Y
Human CD3
  CD25 Induction EC50 (PBMC, 24 h): 0.011 nM
  CD69 Induction EC50 (PBMC, 24 h): 0.007 nM

B5: CD33/CD3 2×2 T-cell engager 02 (bispecific antibody)
chain: B3 chain with S63A, L69G, I70S, D72T, K73D, A74F, N218V, S222Y, F223Y
Human CD3
  CD25 Induction EC50 (PBMC, 24 h): 0.042 nM
  CD69 Induction EC50 (PBMC, 24 h): 0.027 nM

B6: CD33/CD3 2×2 T-cell engager 04 (bispecific antibody)
chain: B3 chain with S63A, L69G, I70S, D72T, K73D, A74F, F223L
Human CD3
  CD25 Induction EC50 (PBMC, 24 h): 0.094 nM
  CD69 Induction EC50 (PBMC, 24 h): 0.062 nM

B7: CD33/CD3 2×2 T-cell engager 13 (bispecific antibody)
chain: B3 chain with D72T, K73D, A74F, N218V, S222Y, F223Y
Human CD3
  CD25 Induction EC50 (PBMC, 24 h): 0.03 nM
  CD69 Induction EC50 (PBMC, 24 h): 0.022 nM

B8: CD33/CD3 2×2 T-cell engager 03 (bispecific antibody)
chain: B3 chain with S63A, L69G, I70S, D72T, K73D, A74F
Human CD3
  CD25 Induction EC50 (PBMC, 24 h): 0.117 nM
  CD69 Induction EC50 (PBMC, 24 h): 0.087 nM

B9: CD33/CD3 2×2 T-cell engager 11 (bispecific antibody)
chain: B3 chain with F223L
Human CD3
  CD25 Induction EC50 (PBMC, 24 h): 0.011 nM
  CD69 Induction EC50 (PBMC, 24 h): 0.005 nM

B10: CD33/CD3 2×2 T-cell engager 15 (bispecific antibody)
chain: B3 chain with G49A, W469Y
Human CD3
  CD25 Induction EC50 (PBMC, 24 h): 0.006 nM
  CD69 Induction EC50 (PBMC, 24 h): 0.007 nM

B11: CD33/CD3 2×2 T-cell engager 01 (bispecific antibody)
chain: B3 chain with S63A, L69G, I70S, D72T, K73D, A74F, Y221F, F223Y
Human CD3
  CD25 Induction EC50 (PBMC, 24 h): 0.092 nM
  CD69 Induction EC50 (PBMC, 24 h): 0.091 nM

B12: CD33/CD3 2×2 T-cell engager 21 (bispecific antibody)
chain: DIQMTQSPSSLSASVGDRVTITCRSSTGAVTTSNYANWVQQKPGKAPKALIGGTNKRAPGVPSRFSGSLIGDKATLTISSLQPEDFATYYCALWYSNLWVFGQGTKVEIKGGSGGSQVQLVQSGAEVKKPGSSVKVSCKASGGTFSSYAISWVRQAPGQGLEWMGGIYPIFGSANYAQKFQGRVTITADESTSTAYMELSSLRSEDTAVYYCAREYYYDSSEWAFDIWGQGTLVTVSSGGSGQSVLTQPPSASGTPGQRVTISCSGSSSNIGSNIVNWYQQLPGTAPKLLIYSNNQRPSGVPDRFSGSKSGTSASLAISGLQSEDEADYYCAAWDDSLKGYVFGGGTKLTVLGGSGGSEVQLVESGGGLVQPGGSLRLSCAASGFTFSTYAMNWVRQAPGKGLEWVGRIRSKYNNYATYYADSVKDRFTISRDDSKNSLYLQMNSLKTEDTAVYYCARHGNFGNSYVSYFAYWGQGTLVTVSSAAAGSHHHHHH
Human CD3
  CD69 Induction EC50 (PBMC, 24 h): 0.225 nM

B13: CD33/CD3 2×2 T-cell engager 22 (bispecific antibody)
chain: B12 chain with A149G, Y168I, N175H, I275T, N277K, P298S, T312S, K339N
Human CD3
  CD25 Induction EC50 (PBMC, 24 h): 0.01 nM
  CD69 Induction EC50 (PBMC, 24 h): 0.004 nM

B14: CD33/CD3 2×2 T-cell engager 24 (bispecific antibody)
chain: DIQMTQSPSSLSASVGDRVTITCRSSTGAVTTSNYANWVQQKPGKAPKALIGGTNKRAPGVPSRFSGSLIGDKATLTISSLQPEDFATYYCALWYSNLWVFGQGTKVEIKGGSGGSQVQLVQSGAEVKKPGSSVKVSCKASGGTFDSYAISWVRQAPGQGLEWMGGIIPIFGSAHYSQKFQGRVTITADESTSTAYMELSSLRSEDTAVYYCAREYYYDSSEWAFDIWGQGTLVTVSSGGSGQSVLTQPPSASGTPGQRVTISCSGSSSNIGDNVVNWYQQLPGTAPKLLIYSTNKRPSGVPDRFSGSKSGSSASLAISGLQSEDEADYYCAAWDDSLSAYVFGGGTKLTVLGGSGGSEVQLVESGGGLVQPGGSLRLSCAASGFTFSTYAMNWVRQAPGKGLEWVGRIRSKYNNYATYYADSVKDRFTISRDDSKNSLYLQMNSLKTEDTAVYYCARHGNFGNSYVSYFAYWGQGTLVTVSSAAAGSHHHHHH
Human CD3
  CD69 Induction EC50 (PBMC, 24 h): 0.057 nM

B15: CD33/CD3 2×2 T-cell engager 23 (bispecific antibody)
chain: DIQMTQSPSSLSASVGDRVTITCRSSTGAVTTSNYANWVQQKPGKAPKGLIGGTNKRAPGVPSRFSGSLIGTDFTLTISSLQPEDFATYYCALWYSNLWVFGQGTKVEIKGGSGGSQVQLVQSGAEVKKPGSSVKVSCKASGGTFSSYGISWVRQAPGQGLEWMGGIIPIFGSAHYAQKFQGRVTITADESTSTAYMELSSLRSEDTAVYYCAREYYYDSSEWAFDIWGQGTLVTVSSGGSGQSVLTQPPSASGTPGQRVTISCSGSSSNIGSNTVKWYQQLPGTAPKLLIYSNNQRSSGVPDRFSGSKSGSSASLAISGLQSEDEADYYCAAWDDSLNGYVFGGGTKLTVLGGSGGSEVQLVESGGGLVQPGGSLRLSCAASGFTFSTYAMNWVRQAPGKGLEWVGRIRSKYNNYATYYADSVKDRFTISRDDSKNSLYLQMNSLKTEDTAVYYCARHGNFGNSYVSWFAYWGQGTLVTVSS
Human CD3
  CD25 Induction EC50 (PBMC, 24 h): 0.041 nM
  CD69 Induction EC50 (PBMC, 24 h): 0.017 nM

B16: CD33/CD3 2×2 T-cell engager 07 (bispecific antibody)
chain: DIQMTQSPSSLSASVGDRVTITCRSSTGAVTTSNYANWVQQKPGKAPKALIGGTNKRAPGVPSRFSGSLIGDKATLTISSLQPEDFATYYCALWYSNLWVFGQGTKVEIKGGSGGSQVQLQESGGGVVQPGRSLRLSCAASGFSFSNYGIHWVRQAPGKGLEWVALISYDGNKKFYADSVKGRFAISRDTSKNTVDLQMTSLRPEDTAVYYCAKDRLESAAFDYWGQGTLVTVSSGGSGGSSYELTQPPSVSVAPGQTAMITCGGNNIGSTTVHWYQQKPGQAPVLVVYDDNERPSGIPERFSGSNSGSTATLTINRVEAGDEADYYCQVWDSGSDHVVFGGGTKLTVLGGSGGSEVQLVESGGGLVQPGGSLRLSCAASGFTFSTYAMNWVRQAPGKGLEWVGRIRSKYNNYATYYADSVKDRFTISRDDSKNSLYLQMNSLKTEDTAVYYCARHGNFGNSYVSYFAYWGQGTLVTVSSAAAGSHHHHHH
Human CD3
  CD25 Induction EC50 (PBMC, 24 h): 0.134 nM
  CD69 Induction EC50 (PBMC, 24 h): 0.065 nM

B17: CD33/CD3 2×2 T-cell engager 05 (bispecific antibody)
chain: DIQMTQSPSSLSASVGDRVTITCRSSTGAVTTSNYANWVQQKPGKAPKGLIGGTNKRAPGVPARFSGSGSGTDFTLTISSLQPEDFATYYCALWYSNLWVFGQGTKVEIKGGSGGSQVQLVQSGAEVKKPGASVKVSCKASGYTFTSYDINWVRQAPGQGLEWMGWMNPNSGNTGFAQKFQGRVTMTRDTSTSTVYMELSSLRSEDTAVYYCARDRANTDYSFGMDVWGQGTLVTVSSGGSGGQSVLTQPPSASGTPGQRVTISCSGSRSNIGSNTVNWYQQLPGTAPKLLIYGNNQRPSGVPDRFSGSKSGTSASLAISGLQSEDEADYYCATWDDSLIGWVFGGGTKLTVLGGSGGSEVQLVESGGGLVQPGGSLRLSCAASGFTFSTYAMNWVRQAPGKGLEWVGRIRSKYNNYATYYADSVKDRFTISRDDSKNSLYLQMNSLKTEDTAVYYCARHGNFGNSYVSWFAYWGQGTLVTVSSAAAGSHHHHHH
Human CD3
  CD25 Induction EC50 (PBMC, 24 h): 0.116 nM
  CD69 Induction EC50 (PBMC, 24 h): 0.074 nM

B18: CD33/CD3 2×2 T-cell engager 06 (bispecific antibody)
chain: B17 chain with F223L
Human CD3
  CD25 Induction EC50 (PBMC, 24 h): 0.039 nM
  CD69 Induction EC50 (PBMC, 24 h): 0.021 nM

B19: CD33/CD3 2×2 T-cell engager 17 (bispecific antibody)
chain: DIQMTQSPSSLSASVGDRVTITCRSSTGAVTTSNYANWVQQKPGKAPKALIGGTNKRAPGVPSRFSGSLIGDKATLTISSLQPEDFATYYCALWYSNLWVFGQGTKVEIKGGSGGSQVQLVQSGAEVKKPGESLKISCKGSGYSFTSYWIGWVRQMPGKGLEWMGIIYPGDSDTRYSPSFQGQVTISADKSISTAYLQWSSLKASDTAMYYCARHKRGSDAFDIWGQGTTVTVSSGGSGQSVLTQPPSVSGAPGQRVTISCTGSSSNIGAGYDVHWYQQLPGTAPKLLIYGNSNRPSGVPDRFSGSKSGTSASLAITGLQAEDEADYYCQSYDSSLSDVVFGGGTKLTVLGGSGGSEVQLVESGGGLVQPGGSLRLSCAASGFTFSTYAMNWVRQAPGKGLEWVGRIRSKYNNYATYYADSVKDRFTISRDDSKNSLYLQMNSLKTEDTAVYYCARHGNFGNSYVSYFAYWGQGTLVTVSSAAAGSHHHHHH
Human CD3
  CD25 Induction EC50 (PBMC, 24 h): 0.03 nM
  CD69 Induction EC50 (PBMC, 24 h): 0.114 nM
